Source: article PMC3087504
pKd: −log10 of the molar value.

Tests used:
[1] = target: T1, MBP-TAp63αFTL (Mus musculus) (UniProt O88898); test: fluorescence anisotropy; details: 10 mM potassium phosphate pH 7.6, 200 mM NaCl, room temperature, 30 min, 15 nM p21 DNA (300 nM for controls), protein 0.1-15 µM monomer
T1 sequence: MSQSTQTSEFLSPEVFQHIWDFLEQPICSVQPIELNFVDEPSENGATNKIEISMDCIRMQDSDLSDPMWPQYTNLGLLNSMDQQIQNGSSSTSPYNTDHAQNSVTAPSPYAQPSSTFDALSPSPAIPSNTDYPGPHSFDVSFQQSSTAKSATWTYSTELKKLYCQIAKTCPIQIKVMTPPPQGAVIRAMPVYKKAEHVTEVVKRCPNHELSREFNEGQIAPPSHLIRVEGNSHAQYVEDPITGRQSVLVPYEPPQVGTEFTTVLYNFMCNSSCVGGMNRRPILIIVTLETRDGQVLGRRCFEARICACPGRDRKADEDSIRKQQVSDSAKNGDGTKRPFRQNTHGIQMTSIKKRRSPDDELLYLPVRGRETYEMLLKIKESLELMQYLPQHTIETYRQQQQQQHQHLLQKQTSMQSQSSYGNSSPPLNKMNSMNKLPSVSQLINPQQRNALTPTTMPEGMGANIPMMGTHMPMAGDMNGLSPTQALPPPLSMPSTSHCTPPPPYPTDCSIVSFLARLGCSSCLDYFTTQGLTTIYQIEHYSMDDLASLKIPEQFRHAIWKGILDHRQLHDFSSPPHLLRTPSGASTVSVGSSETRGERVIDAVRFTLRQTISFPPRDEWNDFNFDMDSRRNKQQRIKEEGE

[2] = test system: T2, MBP-TAp63γ (Mus musculus), O88898-5; test: fluorescence anisotropy; details: 10 mM potassium phosphate pH 7.6, 200 mM NaCl, room temperature, 30 min, 15 nM p21 DNA (300 nM for controls), protein 0.1-15 µM monomer
T2 sequence: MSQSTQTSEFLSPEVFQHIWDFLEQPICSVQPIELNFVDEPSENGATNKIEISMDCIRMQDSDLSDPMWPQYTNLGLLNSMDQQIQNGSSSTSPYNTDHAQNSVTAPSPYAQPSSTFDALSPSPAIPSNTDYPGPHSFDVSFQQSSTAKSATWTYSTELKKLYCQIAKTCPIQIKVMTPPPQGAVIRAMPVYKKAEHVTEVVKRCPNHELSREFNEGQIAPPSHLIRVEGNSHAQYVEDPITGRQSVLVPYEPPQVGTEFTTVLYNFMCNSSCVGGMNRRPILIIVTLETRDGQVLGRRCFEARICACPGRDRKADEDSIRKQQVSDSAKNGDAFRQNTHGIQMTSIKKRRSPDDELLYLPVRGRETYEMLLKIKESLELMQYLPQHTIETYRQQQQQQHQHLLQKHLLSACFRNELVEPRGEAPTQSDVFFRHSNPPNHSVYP

MBP-TAp63α (mouse) [3] = test: AUC; sedimentation equilibrium, 7000 and 9000 rpm, 1–8 μM monomer, 4°C, 20 mM potassium phosphate pH 7.5, 200 mM NaCl, 2 mM dithiothreitol
MBP-TAp63α (mouse) [4] = test: SEC-MALS; Superdex 200 5/150 GL, room temperature, 80 μl of purified protein of ~1 mg/ml, 0.3 ml/min
MBP-TAp63α (mouse) [5] = test: SEC; purified proteins from E. coli, 3–15 μM, Superose 6 10/300 GL, 16°C, 10 mM potassium phosphate pH 7.6, 200 mM NaCl; column calibrated with globular standards
MBP-TAp63α (mouse) [6] = test: AUC; sedimentation velocity, 45,000 rpm, 4 μM protein, 4°C, 20 mM potassium phosphate pH 7.5, 200 mM NaCl, 2 mM dithiothreitol
MBP-TAp63α (mouse) [7] = test: native MS; LILBID-MS, ~10 μM protein dialyzed against 10 mM potassium phosphate pH 7.6 without NaCl
p63 (Homo sapiens) = p63 (Homo sapiens) (UniProt Q9H3D4); details: cited from earlier work
[8] = target: His-MBP-ΔNp63α^PPR (mouse); test: SEC; purified proteins from E. coli, 3–15 μM, Superose 6 10/300 GL, 16°C, 10 mM potassium phosphate pH 7.6, 200 mM NaCl; column calibrated with globular standards
[9] = target: TAp63α (murine, N-terminal His6-tag, from pBH4) (mouse); test: SEC-MALS; Superdex 200 5/150 GL, room temperature, 80 μl of purified protein of ~1 mg/ml, 0.3 ml/min
[10] = target: TAp63α (murine, N-terminal His6-tag, from pBH4) (mouse); test: SEC; purified proteins from E. coli, 3–15 μM, Superose 6 10/300 GL, 16°C, 10 mM potassium phosphate pH 7.6, 200 mM NaCl; column calibrated with globular standards
[11] = second binding site of two-site fit, suggested unspecific
[12] = two-site fit, first site, monomer concentration

Chain of p63 (Q9H3D4 whole entry): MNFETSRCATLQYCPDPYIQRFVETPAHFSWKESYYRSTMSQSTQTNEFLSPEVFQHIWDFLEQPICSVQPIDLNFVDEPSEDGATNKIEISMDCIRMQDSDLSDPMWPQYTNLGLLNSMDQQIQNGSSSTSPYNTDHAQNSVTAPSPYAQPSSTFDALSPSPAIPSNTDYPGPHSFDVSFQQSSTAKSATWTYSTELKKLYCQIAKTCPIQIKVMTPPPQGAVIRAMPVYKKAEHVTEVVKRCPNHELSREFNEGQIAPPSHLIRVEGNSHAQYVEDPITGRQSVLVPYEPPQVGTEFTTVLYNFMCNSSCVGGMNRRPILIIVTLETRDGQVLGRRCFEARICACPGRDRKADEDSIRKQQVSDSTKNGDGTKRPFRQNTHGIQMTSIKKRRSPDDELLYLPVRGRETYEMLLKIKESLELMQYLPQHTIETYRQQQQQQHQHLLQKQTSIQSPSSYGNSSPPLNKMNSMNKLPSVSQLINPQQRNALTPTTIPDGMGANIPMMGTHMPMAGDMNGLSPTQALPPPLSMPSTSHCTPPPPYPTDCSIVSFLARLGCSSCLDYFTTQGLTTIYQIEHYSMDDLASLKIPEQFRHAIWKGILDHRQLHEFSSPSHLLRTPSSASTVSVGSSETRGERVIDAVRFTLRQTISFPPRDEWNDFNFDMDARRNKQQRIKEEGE

GGCAGGAACATGTCCCAACATGTTGAGCCG (double strand) [p21 promoter response element]
pKd [1, 11]: 4.33 | pKd [1, 12]: 6.42 | pKd [2, 11]: 4.68 | pKd [2, 12]: 6.47

MBP-TAp63α (natural protein)
stoichiometry N (MBP-TAp63α (mouse) [3]): 2 | stoichiometry N (MBP-TAp63α (mouse) [4]): 2 | stoichiometry N (MBP-TAp63α (mouse) [5]): 2 | stoichiometry N (MBP-TAp63α (mouse) [6]): 2 | stoichiometry N (MBP-TAp63α (mouse) [7]): 2

p63 (from UniProt Q9H3D4)
pKd (p63 (Homo sapiens)): 7.92

His-MBP-ΔNp63α^PPR (natural protein)
stoichiometry N [8]: 4

TAp63α (murine, N-terminal His6-tag, from pBH4) (natural protein)
stoichiometry N [9]: 2 | stoichiometry N [10]: 2
